In the supplement of paper PMC9732359 one finds protein stability index data, which are given here for 38 sequences.

± gives the uncertainty stated by the source.

The data set is described as follows: protein stability index of a GFP-peptide fusion (yeast GPS) (PSI 1-4); higher = more stable; sorted into four equal gates, so the index is relative within each strain. The essentials:
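Mid-log yeast cultures in leucine-free medium, carrying a pooled plasmid library, were sorted into four equal gates by their GFP/Cherry fluorescence ratio. Each plasmid expressed Cherry along with GFP fused upstream of a tiled 17-residue yeast protein peptide. Plasmids recovered from each gate were PCR-amplified and Illumina-sequenced, with reads assigned to strains by barcodes. The protein stability index was obtained by summing each gate's read frequency weighted by its gate number.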

For the sequence MPRLEEIDDFNDIDDLD [SEC65], the protein stability index was 2.71 ± 0.1 (doa10∆), 3.09 ± 0.1 (pdr5∆), 2.9 ± 0.088 (san1∆) and 3.23 ± 0.12 (ubr1∆).
For MQLEEELMKLDGTEYVL [MED6], in that order: 3.26 ± 0.15, 3.4 ± 0.11, 3.21 ± 0.091 and 3.26 ± 0.076.
MQNSKVESVCQKLDILV [SMC4]: the protein stability index runs as follows: (doa10∆) 2.26 ± 0.065; (pdr5∆) 2.13 ± 0.059; (san1∆) 2.3 ± 0.088; (ubr1∆) 1.87 ± 0.056.
For MQPFDSGHDDLVHDVVY [YGL100W/SEH1], in that order: 3.23 ± 0.1, 3.43 ± 0.11, 3.13 ± 0.084 and 3.26 ± 0.093.
As to MRAKWRKKRTRRLKRKR [RPL41A], the protein stability index is 3.47 ± 0.16 (doa10∆), 3.06 ± 0.13 (pdr5∆), 3.34 ± 0.16 (san1∆) and 3.44 ± 0.15 (ubr1∆).
In turn, MSAPTMRSTSILTEHLG [MTW1] showed a protein stability index (san1∆) of 2.87 ± 0.24.
In turn, MSEEGPQVKIREASKDN [RPB3] displayed a protein stability index (doa10∆) of 3.18 ± 0.13, a protein stability index (pdr5∆) of 2.44 ± 0.039, a protein stability index (san1∆) of 2.94 ± 0.096 and a protein stability index (ubr1∆) of 3.08 ± 0.083.
On to MSFIFPSYAERQSSDES [YML031W/NDC1], for which the protein stability index is, setting by setting: (doa10∆) 2.58 ± 0.051; (pdr5∆) 2.04 ± 0.048; (san1∆) 2.74 ± 0.066; (ubr1∆) 2.5 ± 0.046.
Take MSGLPPPPPGFEEDSDL [PRP8]: the protein stability index is, setting by setting: (doa10∆) 3.19 ± 0.11; (pdr5∆) 3.37 ± 0.083; (san1∆) 3.13 ± 0.075; (ubr1∆) 3.31 ± 0.078.
Take MSIDEEDKDSESFSEVC [YCG1]: the protein stability index runs as follows: (doa10∆) 2.71 ± 0.15; (pdr5∆) 2.34 ± 0.09; (san1∆) 2.48 ± 0.15; (ubr1∆) 2.43 ± 0.067.
For MSLKKCQEEVSTIEKDM [SMC2], in that order: 2.48 ± 0.1, 2.73 ± 0.12, 2.75 ± 0.14 and 2.79 ± 0.2.
MSNVVQARDNSQVFGVA [RPS14A] returned a protein stability index (doa10∆) of 1.89 ± 0.06, a protein stability index (pdr5∆) of 2.11 ± 0.056, a protein stability index (san1∆) of 1.94 ± 0.083 and a protein stability index (ubr1∆) of 2.05 ± 0.041.
As to MSSQIIDRPKHELSRAE [SMD2], the protein stability index by setting is: (doa10∆) 3.14 ± 0.093; (pdr5∆) 3.46 ± 0.12; (san1∆) 3.2 ± 0.11; (ubr1∆) 3.25 ± 0.11.
Regarding MSVKPIDNYITNSVRLF [SRP21], the protein stability index (doa10∆) is 1.94 ± 0.076, the protein stability index (pdr5∆) stood at 1.91 ± 0.06, the protein stability index (san1∆) is 1.56 ± 0.068 and the protein stability index (ubr1∆) was 1.63 ± 0.079.
Regarding MSYVVRILSTLDRELLK [RPT3], the protein stability index by setting is: (doa10∆) 2.31 ± 0.098; (pdr5∆) 2.24 ± 0.1; (san1∆) 2.55 ± 0.057; (ubr1∆) 2.88 ± 0.094.
Take MTDIWNTLIPESSLTIS [ECM29]: the protein stability index was 2.22 ± 0.064 (doa10∆), 2.46 ± 0.054 (pdr5∆), 2.14 ± 0.1 (san1∆) and 2.87 ± 0.058 (ubr1∆).
On to MTEHETKDKAKKIREIY [BRR2], for which the protein stability index came to 2.6 ± 0.17 (doa10∆), 2.69 ± 0.11 (pdr5∆), 2.27 ± 0.18 (san1∆) and 2.35 ± 0.1 (ubr1∆).
MTIPHMKYAVSKTSENK [SIR2]: the protein stability index was 3.14 ± 0.12 (doa10∆), 3.07 ± 0.16 (pdr5∆), 2.75 ± 0.11 (san1∆) and 3.06 ± 0.1 (ubr1∆).
For MTTEDPDSNHLSSETGI [SRB4], in that order: 3.15 ± 0.12, 2.85 ± 0.2, 3.37 ± 0.076 and 3.04 ± 0.081.
For the sequence MVHLYSIVEECDARFDE [RPC17], the protein stability index (doa10∆) is 3.04 ± 0.12, the protein stability index (pdr5∆) was determined as 2.94 ± 0.078, the protein stability index (san1∆) is 3.01 ± 0.099 and the protein stability index (ubr1∆) was 2.74 ± 0.18.
As to MVLYKRKPILLPDPKPL [ITC1], the protein stability index by setting is: (doa10∆) 2.88 ± 0.067; (pdr5∆) 2.85 ± 0.065; (san1∆) 2.75 ± 0.067; (ubr1∆) 2.66 ± 0.055.
With MVNSHGIRYIRLKQVFN [NNF1], the protein stability index is, setting by setting: (doa10∆) 1.46 ± 0.048; (pdr5∆) 1.67 ± 0.04; (san1∆) 1.88 ± 0.19; (ubr1∆) 1.81 ± 0.052.
For MVVNGPIPDARNAALRA [SCL1], in that order: 2.38 ± 0.14, 2.72 ± 0.11, 2.36 ± 0.13 and 2.35 ± 0.091.
Sequence MYNGKDRAQNSYQPMYQ [SSN3] yielded a protein stability index (doa10∆) of 3.31 ± 0.21, a protein stability index (pdr5∆) of 2.48 ± 0.23 and a protein stability index (ubr1∆) of 3.2 ± 0.063.
As to MYQMITMGGNAELELVD [SMC4], the protein stability index stood at 2.81 ± 0.074 (doa10∆), 2.47 ± 0.1 (pdr5∆), 2.6 ± 0.08 (san1∆) and 2.54 ± 0.072 (ubr1∆).
NAAPANVTGGKAANFIQ [SWI1]: the protein stability index runs as follows: (doa10∆) 2.52 ± 0.05; (pdr5∆) 1.86 ± 0.045; (san1∆) 2.48 ± 0.086; (ubr1∆) 2.46 ± 0.049.
As to NAARKAEASGEAAEEAE [RPS9B], the protein stability index came to 3.81 ± 0.29 (doa10∆), 3.39 ± 0.24 (pdr5∆) and 2.89 ± 0.28 (ubr1∆).
NAASGSNSNVTNPSSIF [YOR098C/NUP1]: the protein stability index is, setting by setting: (doa10∆) 2.83 ± 0.049; (pdr5∆) 2.74 ± 0.047; (san1∆) 2.3 ± 0.049; (ubr1∆) 2.73 ± 0.049.
Regarding NAEATKEEFSSAENRDE [CSE2], the protein stability index by setting is: (doa10∆) 3.14 ± 0.082; (pdr5∆) 3.25 ± 0.086; (san1∆) 3.35 ± 0.059; (ubr1∆) 3.28 ± 0.069.
In the case of NAGTNDNSFNELTDNMS [MCD1], the protein stability index was determined as 3.01 ± 0.082 (doa10∆), 3.13 ± 0.076 (pdr5∆), 3.15 ± 0.042 (san1∆) and 3.3 ± 0.05 (ubr1∆).
NAIRIGELFLNESWKSS [SRP72]: the protein stability index was 3.39 ± 0.14 (doa10∆), 3.21 ± 0.083 (pdr5∆), 2.62 ± 0.14 (san1∆) and 3.12 ± 0.062 (ubr1∆).
Take NAKIIDAEVAQFLEQGL [SRP68]: the protein stability index by setting is: (doa10∆) 2.83 ± 0.057; (pdr5∆) 2.59 ± 0.045; (san1∆) 2.12 ± 0.073; (ubr1∆) 3.08 ± 0.041.
Take NALDKLRNNLNSLIEEI [YCG1]: the protein stability index turned out to be 3.22 ± 0.12 (doa10∆), 3.26 ± 0.1 (pdr5∆), 2.27 ± 0.21 (san1∆) and 3.08 ± 0.092 (ubr1∆).
Turning to NASKVISTPIINAVLVN [RPO31], the protein stability index is, setting by setting: (doa10∆) 1.63 ± 0.11; (pdr5∆) 2.19 ± 0.14; (san1∆) 1.74 ± 0.2.
As for NATEVQKESDAKNETNS [ITC1], the protein stability index reads like this: (doa10∆) 2.67 ± 0.077; (pdr5∆) 3.05 ± 0.11; (san1∆) 2.67 ± 0.11; (ubr1∆) 2.59 ± 0.2.
With NAYASFLQRQGKLEVPG [RPS19A], the protein stability index runs as follows: (pdr5∆) 3.24 ± 0.19; (san1∆) 3.21 ± 0.12; (ubr1∆) 3.2 ± 0.094.
Consider NCEYEDPPNEGDPFDYK [RPB3], for which the protein stability index is, setting by setting: (doa10∆) 3.16 ± 0.13; (pdr5∆) 3.4 ± 0.12; (san1∆) 3.36 ± 0.11; (ubr1∆) 3.14 ± 0.06.
Take NCKKKKKRKKKNKSAID [RMP1]: the protein stability index is, setting by setting: (doa10∆) 2.57 ± 0.1; (pdr5∆) 2.67 ± 0.13; (san1∆) 2.79 ± 0.089; (ubr1∆) 3.37 ± 0.16.
